Data published in patent US20150344570A1 (published 2015).
Numbering of substitutions follows the chain as printed. Names may count otherwise.

Assays:
[1] = target: FcγRIa (human, UniProt P12314 16-292); experiment: SPR (Biacore 4000)
[2] = target: T1, FcγRIIIa (human, UniProt P08637 17-208); experiment: SPR (Biacore); KD of GpH7-TA7/GpH7-B78/GpL16-k0 for FcγRIIIa divided by the KD of this antibody (this row is the reference itself)
T1 construct: extracellular domain; Soluble extracellular domain with a C-terminal His tag, expressed in FreeStyle293 cells and used as the analyte in Biacore; also called FcgRIIIa; CD16A; not shown: His tag attached to the C terminus
Experimental: The prepared antibodies were compared for the FcγRIIIa-binding activity using, as an indicator, KD for FcγRIIIa that was determined according to the method described in Reference Example 2.
Analysis of interaction between objective antibody and the FcγR was carried out using Biacore T100 (GE Healthcare). HBS-EP+ (GE Healthcare) was used as the running buffer, and the measurement temperature was set to 25° C. Chips produced by immobilizing the antigen peptide by the amine coupling method to a Series S Sencor Chip CM5 (GE Healthcare), or alternatively, chips produced by allowing preliminarily biotinylated antigen peptides to interact with and immobilize onto a Series S Sensor Chip SA (certified) (GE Healthcare) were used. Antibodies of interest were captured onto an antigen peptide-immobilized chip, and allowed to interact to each FcγR diluted with running buffer. To regenerate and repeatedly use the chip, the antibodies captured on the chip were washed off by reacting 10 mM glycine-HCl, pH 1.5.
Specifically, to calculate association rate constant ka (L/mol/s) and dissociation rate constant kd (1/s), sensorgrams obtained by measurement were processed for global fitting by Biacore Evaluation Software using 1:1 Langmuir binding model and dissociation constant KD (mol/1) was calculated from the resulting values.

[3] = target: FcγRIIIa F (human, UniProt P08637 17-208); experiment: SPR (Biacore), KD; the variant that showed the most enhancement
[4] = target: FcγRIIIa V (human, UniProt P08637 17-208); experiment: as above
[5] = target: FcγRIIa R (human, UniProt P12318 34-217); experiment: SPR (Biacore), KD; showed the most enhancement
[6] = target: FcγRIIa H (human, UniProt P12318 34-217); experiment: SPR (Biacore), KD; showed the most enhancement
[7] = target: T2, FcgRIa (human, UniProt P12314 16-292); experiment: SPR (Biacore); KD of GpH7-Kn033/GpH7-Hl033/GpL16-k0 for this FcγR divided by KD of this antibody (reference itself)
T2 construct: extracellular domain; also called FcγRIa; FcγRI

[8] = target: T3, FcgRIIIa V (human, UniProt P08637 17-208); experiment: as above
T3 construct: extracellular domain; also called FcγRIIIa V; FcγRIIIaV

[9] = target: T4, FcgRIIa R (human, UniProt P12318 34-217); experiment: as above
T4 construct: extracellular domain; also called FcγRIIa R; FcγRIIa type R
T4 sequence (looked up): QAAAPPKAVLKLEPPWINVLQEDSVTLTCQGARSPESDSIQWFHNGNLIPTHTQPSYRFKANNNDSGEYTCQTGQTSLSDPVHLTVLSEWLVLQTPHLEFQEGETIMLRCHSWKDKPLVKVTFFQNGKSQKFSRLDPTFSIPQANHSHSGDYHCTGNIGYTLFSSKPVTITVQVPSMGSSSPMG

[10] = target: T5, FcgRIIa H (human, UniProt P12318 34-217); experiment: as above
T5 construct: extracellular domain; also called FcγRIIa H; FcγRIIa type H
T5 sequence (looked up): T4 sequence (looked up) with R134H

[11] = target: T6, FcgRIIIa F (human, UniProt P08637 17-208); experiment: as above
T6 construct: extracellular domain; also called FcγRIIIa F; FcγRIIIaF

[12] = target: T7, FcgRIIb (human, UniProt P31994 43-217); experiment: as above
T7 construct: extracellular domain; also called FcγRIIb; CD32B
T7 sequence (looked up): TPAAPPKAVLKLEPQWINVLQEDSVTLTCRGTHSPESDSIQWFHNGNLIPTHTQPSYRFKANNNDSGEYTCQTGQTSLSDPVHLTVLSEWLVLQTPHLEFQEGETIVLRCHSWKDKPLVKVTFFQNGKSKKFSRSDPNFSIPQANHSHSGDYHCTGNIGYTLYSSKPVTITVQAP

T3 sequence (P08637 17-208 F176V limits assumed): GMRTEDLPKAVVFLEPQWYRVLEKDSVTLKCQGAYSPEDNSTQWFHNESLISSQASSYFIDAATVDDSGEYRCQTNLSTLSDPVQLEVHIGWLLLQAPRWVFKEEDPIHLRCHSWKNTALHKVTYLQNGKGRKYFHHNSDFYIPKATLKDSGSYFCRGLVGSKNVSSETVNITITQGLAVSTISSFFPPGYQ
Sequence of FcγRIa (P12314 16-292): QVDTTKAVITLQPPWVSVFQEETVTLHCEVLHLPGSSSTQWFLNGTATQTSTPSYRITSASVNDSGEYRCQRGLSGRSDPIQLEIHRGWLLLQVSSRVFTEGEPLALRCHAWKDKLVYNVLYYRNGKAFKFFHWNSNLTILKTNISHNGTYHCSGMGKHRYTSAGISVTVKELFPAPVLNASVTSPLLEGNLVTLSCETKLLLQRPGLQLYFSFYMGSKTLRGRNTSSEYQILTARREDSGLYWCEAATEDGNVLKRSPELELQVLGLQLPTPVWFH
T2 sequence (P12314 16-292): as above
Sequence of FcγRIIIa F (P08637 17-208): as the sequence (P08637 17-208 F176V limits assumed) above, with V160F counted along it
T1 sequence (P08637 17-208): as the sequence (P08637 17-208 F176V limits assumed) above, with V160F counted along it
T6 sequence (P08637 17-208): as the sequence (P08637 17-208 F176V limits assumed) above, with V160F counted along it
Sequence of FcγRIIIa V (P08637 17-208): as the sequence (P08637 17-208 F176V limits assumed) above, with V160F counted along it

B1: H240-Kn120/H240-Hl073/L73-k0 (antibody, human IgG1, kappa)
heavy 1: QDQLVQSGAEVKKPGASVKVSCKASGFNIKDTYIQWVRQAPGQGLEWMGRIDPLRKQTKYREKFEGRVTITADTSTNTAYMELSSLRSEDTAVYYCVRSGREFDYWGQGTLVTVSSASTKGPSVFPLAPSSKSTSGGTAALGCLVKDYFPEPVTVSWNSGALTSGVHTFPAVLQSSGLYSLSSVVTVPSSSLGTQTYICNVNHKPSNTKVDKKVEPKSCDKTHTCPPCPAPEYYWGPMVFLFPPKPKDTLMISRTPEVTCVVVDVSDEDPEVKFNWYVDGVEVHNAKTKPREEQYNATYRVVSVLTVLHQDWLNGKEYKCKVSNKDLPAPIEKTISKAKGQPREPQVCTLPPSRDELTKNQVSLWCLVKGFYPSDIAVEWESNGQPENNYKTTPPVLDSDGSFFLYSKLTVDKSRWQQGNVFSCSVMHEALHNHYTQKSLSLSP
heavy 2: QDQLVQSGAEVKKPGASVKVSCKASGFNIKDTYIQWVRQAPGQGLEWMGRIDPLRKQTKYREKFEGRVTITADTSTNTAYMELSSLRSEDTAVYYCVRSGREFDYWGQGTLVTVSSASTKGPSVFPLAPSSKSTSGGTAALGCLVKDYFPEPVTVSWNSGALTSGVHTFPAVLQSSGLYSLSSVVTVPSSSLGTQTYICNVNHKPSNTKVDKKVEPKSCDKTHTCPPCPAPELLSGPSVFLFPPKPKDTLMISRTPEVTCVVVDVSHEEPEVKFNWYVDGVEVHNAKTKPREEQYNSTYRVVSVLTVLHQDWLNGKEYKCKVSNDALPKPIEETISKAKGQPREPQVYTLPPSRCELTKNQVSLSCAVKGFYPSDIAVEWESNGQPENNYKTTPPVLDSDGSFFLVSKLTVDKSRWQQGNVFSCSVMHEALHNHYTQKSLSLSP
light: DIQMTQSPSSLSASVGDRVTITCRASQDIHKYIAWYQQKPGQAPRLLIQYTSTLQPGVPSRFSGSGSGTDYTFTISSLQPEDIATYYCLQYEQLRTFGGGTKVEIKRTVAAPSVFIFPPSDEQLKSGTASVVCLLNNFYPREAKVQWKVDNALQSGNSQESVTEQDSKDSTYSLSSTLTLSKADYEKHKVYACEVTHQGLSSPVTKSFNRGEC
notes: G236S introduced into H240-Hl068; also called H240-Kn120/H240-HI073/L73-k0
koff [1]: < 5e-05 s⁻¹

B2: GpH7-TA7/GpH7-B78/GpL16-k0 (antibody, human IgG1, kappa)
heavy 1: QVQLVQSGAEVKKPGASVTVSCKASGYTFTDYEMHWIRQPPGEGLEWIGAIDPKTGDTAYSESFQDRVTLTADKSTSTAYMELSSLTSEDTAVYYCTRFYSYTYWGQGTLVTVSSASTKGPSVFPLAPSSKSTSGGTAALGCLVKDYFPEPVTVSWNSGALTSGVHTFPAVLQSSGLYSLSSVVTVPSSSLGTQTYICNVNHKPSNTKVDKKVEPKSCDKTHTCPPCPAPEYLWGPSVFLFPPKPKDTLMISRTPEVTCVVVDVSHEDPEVKFNWYVDGVEVHNAKTKPREEQYNATYRVVSVLTVLHQDWLNGKEYKCKVSNKALPAPIEKTISKAKGQPREPQVYTLPPSRKELTKNQVSLTCLVKGFYPSDIAVEWESNGQPENNYKTTPPVLDSDGSFFLYSKLTVDKSRWQQGNVFSCSVMHEALHNRYTQKSLSLSP
heavy 2: B2 heavy 1 with Y232L, W234G, S237D, A296S, A328L, I330E, K354D, R433H, K437E
light: DIVMTQSPLSLPVTPGEPASISCQASESLVHSNRNTYLHWYLQKPGQSPQLLIYKVSNRFSGVPDRFSGSGSGTDFTLKISRVEAEDVGVYYCSQNTHVPPTFGQGTKVEIERTVAAPSVFIFPPSDEQLKSGTASVVCLLNNFYPREAKVQWKVDNALQSGNSQESVTEQDSKDSTYSLSSTLTLSKADYEKHKVYACEVTHQGLSSPVTKSFNRGEC
notes: Heterodimerized anti-glypican-3 IgG1 antibody with two different H chains (same variable region GpH7) and a common L chain; also called TA7/B78
KD ratio [2]: 1

B3: H240-Kn227/H240-Hl214/L73-k0 (antibody, human IgG1, kappa)
heavy 1: B1 heavy 1 with Y233E, Y234Q, M238I, D269E, D326A
heavy 2: B1 heavy 2 with S235G, K329F
light: B1 light
notes: 330 F in H240-Hl076
fold binding activity against H240-Kn033/H240-Hl033/L73-k0 [3]: 161 fold

B4: H240-Kn203/H240-Hl210/L73-k0 (antibody, human IgG1, kappa)
heavy 1: B1 heavy 1 with Y233F
heavy 2: B1 heavy 2 with S235G, K329A
light: B1 light
notes: 330 A in H240-Hl076
fold binding activity against H240-Kn033/H240-Hl033/L73-k0 [4]: 107 fold

B5: H240-Kn231/H240-Hl068/L73-k0 (antibody, human IgG1, kappa)
heavy 1: B1 heavy 1 with Y233I, M238I
heavy 2: B1 heavy 2 with S235G
light: B1 light
fold binding activity against H240-Kn033/H240-Hl033/L73-k0 [5]: 83 fold | fold binding activity against H240-Kn033/H240-Hl033/L73-k0 [6]: 33 fold

B6: GpH7-Kn033/GpH7-Hl033/GpL16-k0 (antibody, human IgG1, kappa)
heavy 1: not shown
heavy 2: not shown
light: B2 light
notes: Anti-glypican-3 antibody; knobs-into-holes alone applied to G1d (knob chain Y349C/T366W; hole chain D356C/T366S/L368A/Y407V); also called Kn033/Hl033
KD ratio [7]: 1 fold | KD ratio [8]: 1 fold | KD ratio [9]: 1 fold | KD ratio [10]: 1 fold | KD ratio [11]: 1 fold | KD ratio [12]: 1 fold
